From PMC11213948 (2024) come the findings set out here.

In the test the target is G5_(1–1508)-FLAG. In words: pull-down. The note with it: HEK293 cell lysates; western blot with anti-FLAG and anti-Xpress; n = 2; read off a plot.

In turn, “Xpress-His G5_(1–1508) mutant A951E [not stated] / G5_(1–1508)-FLAG [not stated] chain 1 A951E” yielded a response (relative intensity (PD/In)) of 1.3.
